Source: the supplement of paper PMC12783771
± gives the standard deviation of the averaged measurements.

B1: library; numbered along this chain (parent)
chain: MNIQIGELAKRTACPVVTIRFYEQEGLLPPPGRSRGNFRLYGEEHVERLQFIRHCRSLDMPLSDVRTLLSYRKRPDQDCGEVNMLLDEHIRQVESRIGALLELKHHLVELREACSGARPAQSCGILQGLSDCVCDTRGTTAHPSD

Experiments:
[1] = variants of: B1; test: sfGFP reporter fluorescence (15 h) (µM FITC); higher = higher leak; details: library round: Round 0; ligand: none
Method in brief: (§1)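 An Echo normalized PCR-made linear PbrR templates to 5 nM and assembled 1 μL reactions in BL21 Star (DE3) PANOx-SP extract carrying the pPbrR-sfGFP reporter plasmid and 30 μg/mL GamS. Reactions received 1 µM lead chloride, 30 µM zinc acetate or no metal and stood 15 hr at 30 °C. Fluorescence at 485/528 nm (Synergy Neo2) was converted with FITC standard curves made in 50 mM sodium borate pH 8.5. Endpoint sfGFP signal is given in µM FITC, from up to three biological replicates.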

[2] = variants of: B1; test: sfGFP reporter fluorescence (15 h) (µM FITC); higher = stronger transcriptional activation; details: library round: Round 0
Method in brief: as §1

| Variant | sfGFP reporter fluorescence [1] | sfGFP reporter fluorescence ([2]; ligand: 1 µM Pb) | sfGFP reporter fluorescence ([2]; ligand: 30 µM Zn) |
| --- | --- | --- | --- |
| MNIQIGELAKRTACPVVTIRFYEQEGLLPPPGRSRGNFRLYGEEHVERLQFIRHCRSLDMPLSDVRTLLSYRKRPDQDDGEVNMLLDEHIRQVESRIGALLELKHHLVELREACSGARPAQSCGILQGLSDCVCDTRGTTAHPSD | 0.05882 ± 0.00026 | 0.059 ± 0.0021 | 0.0564 ± 0.001 |
| MNIQIGELAKRTACPVVTIRFYEQEGLLPPPGRSRGNFRLYGEEHVERLQFIRHCRSLDMPLSDVRTLLSYRKRPDQDGGEVNMLLDEHIRQVESRIGALLELKHHLVELREACSGARPAQSCGILQGLSDCVCDTRGTTAHPSD | 0.0553 ± 0.0021 | 0.0552 ± 0.0013 | 0.0522 ± 0.0013 |
| MNIQIGELAKRTACPVVTIRFYEQEGLLPPPGRSRGNFRLYGEEHVERLQFIRHCRSLDMPLSDVRTLLSYRKRPDQDFGEVNMLLDEHIRQVESRIGALLELKHHLVELREACSGARPAQSCGILQGLSDCVCDTRGTTAHPSD | 0.055 ± 0.0026 | 0.0574 ± 0.0013 | 0.0546 ± 0.0015 |
| MNIQIGELAKRTACPVVTIRFYEQEGLLPPPGRSRGNFRLYGEEHVERLQFIRHCRSLDMPLSDVRTLLSYRKRPDQDIGEVNMLLDEHIRQVESRIGALLELKHHLVELREACSGARPAQSCGILQGLSDCVCDTRGTTAHPSD | 0.0557 ± 0.0015 | 0.05351 ± 0.00052 | 0.05387 ± 0.00052 |
| MNIQIGELAKRTACPVVTIRFYEQEGLLPPPGRSRGNFRLYGEEHVERLQFIRHCRSLDMPLSDVRTLLSYRKRPDQDEGEVNMLLDEHIRQVESRIGALLELKHHLVELREACSGARPAQSCGILQGLSDCVCDTRGTTAHPSD | 0.0588 ± 0.00078 | 0.0596 ± 0.00078 | 0.0548 ± 0.00078 |
| MNIQIGELAKRTACPVVTIRFYEQEGLLPPPGRSRGNFRLYGEEHVERLQFIRHCRSLDMPLSDVRTLLSYRKRPDQDAGEVNMLLDEHIRQVESRIGALLELKHHLVELREACSGARPAQSCGILQGLSDCVCDTRGTTAHPSD | 0.05827 ± 0.00052 | 0.055 ± 0.0021 | 0.0585 ± 0.00078 |
| MNIQIGELAKRTACPVVTIRFYEQEGLLPPPGRSRGNFRLYGEEHVERLQFIRHCRSLDMPLSDVRTLLSYRKRPDQDHGEVNMLLDEHIRQVESRIGALLELKHHLVELREACSGARPAQSCGILQGLSDCVCDTRGTTAHPSD | 0.05919 ± 0.00026 | 0.0596 ± 0.00078 | 0.0559 ± 0.00078 |
